Legend:
[1] = target: CdvB1 from Metallosphaera sedula, MBP tag cleaved off with 3C protease (Metallosphaera sedula); assay: co-sedimentation; 1 uM MBP-CdvB1 with 0.1 uM 3C protease, 50 mM HEPES pH 7.4, 50 mM NaCl, 5 mM MgCl2, Ficoll 41.25 mg/mL, overnight at 4 °C; 0.6 uM CdvC added, nucleotide or buffer, 2 min at 50 °C; 140 000 g 30 min at 4 °C; pellet and supernatant on SDS/PAGE
[2] = target: CdvB1 from Metallosphaera sedula, MBP tag cleaved off with 3C protease (Metallosphaera sedula)
[3] = target: CdvB1 from Metallosphaera sedula, MBP tag cleaved off with 3C protease (Metallosphaera sedula); remark: listed apart in the source

“CdvB1 from Metallosphaera sedula, MBP tag cleaved off with 3C protease (natural protein)” showed a filament-to-monomer ratio (with CdvC and ADP or ATPγS, no hydrolysable nucleotide) [1] of 2.

B1: CdvC from Metallosphaera sedula (enzyme)
chain: MSAQVMLEEMARKYAIAAVRADKEGRREDAINNYKKAIEVLTQIVTLYPDMVARNAYEQMINEYKKRLETLNQMVPEGGEETEKAEEDIVMKEKPKVTLNEIVGLEDVKEALKEAVVYPSKRPDLFPLGWPRGILLYGPPGCGKTMIAAAVANELDSEFIHVDAASIMSKWLGEAEKNVAKIFKTARELSKKENKPAIIFIDELDALLASYTSEVGGEARVRNQFLKEMDGLADKNEISKVYVIGATNKPWRLDEPFLRRFQKRIYITLPDKAHRLELLKHYSSKVKLDPNVNLEELAELTDGYTASDIRDIVQSAHMRVVKEMFEKNLQEPRAINMDDFREVLKVRKPSVNQDMLKAYAAWHEKFKAL
Work on B1 yielded an ATP consumed by CdvC (0.1 uM) in 25 min at 50 °C with CdvB1 filaments (1 uM) against CdvC alone [2] of 8 fold and a filament-to-monomer (pellet-to-supernatant) ratio of CdvB1 in the sedimentation assay after CdvC with ATP, 2 min at 50 °C [3] of 0.1.
